Assay [1] has as its target CoREST (UniProt Q8CFE3). The assay can be described thus: FLAG co-immunoprecipitation, immunoblot quantitated with ImageJ. The note with it: NIH 3T3 cells transiently transfected; mean of two independent experiments; parent: est. 1.0; read off a plot.
The target of assay [2] is CoREST (UniProt Q8CFE3). Nature of the assay: co-immunoprecipitation of endogenous proteins (CoREST IP'ed with Lsd1), immunoblot quantitated with ImageJ. The note with it: primary MEFs; mean of three independent experiments; p<0.005 vs wild type; parent: est. 1.0; read off a plot.
The target in assay [3] is CoREST (UniProt Q8CFE3). Nature of the assay: co-immunoprecipitation of endogenous proteins (Lsd1 IP'ed with CoREST), immunoblot quantitated with ImageJ. To be noted: primary MEFs; mean of three independent experiments; p<0.001 vs wild type; parent: est. 1.0; read off a plot.

UniProt Q8CFE3, sequence (Q8CFE3 whole entry): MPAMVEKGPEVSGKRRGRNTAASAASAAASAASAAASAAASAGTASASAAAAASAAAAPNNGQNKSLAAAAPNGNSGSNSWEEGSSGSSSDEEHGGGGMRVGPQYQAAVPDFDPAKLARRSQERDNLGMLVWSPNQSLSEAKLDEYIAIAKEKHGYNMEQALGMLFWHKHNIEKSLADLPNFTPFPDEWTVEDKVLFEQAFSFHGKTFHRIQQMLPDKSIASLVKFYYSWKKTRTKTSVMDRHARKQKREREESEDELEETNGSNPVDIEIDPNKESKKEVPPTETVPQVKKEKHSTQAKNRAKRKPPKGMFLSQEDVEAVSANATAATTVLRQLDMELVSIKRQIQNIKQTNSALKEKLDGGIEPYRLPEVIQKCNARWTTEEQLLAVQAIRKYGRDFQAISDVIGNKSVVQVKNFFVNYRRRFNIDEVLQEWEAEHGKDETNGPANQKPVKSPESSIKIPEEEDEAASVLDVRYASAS

For the substance “FLAG-tagged wild-type Lsd1 (lysine-specific demethylase 1) (from UniProt Q6ZQ88) N535A”, the ratio to parent with CoREST [1] was determined as 1.8. Same read-out and setting: then “FLAG-tagged wild-type Lsd1 (lysine-specific demethylase 1) (from UniProt Q6ZQ88) E413G; M448V”, with 0.09. Turning to “endogenous wild-type Lsd1 (from UniProt Q6ZQ88) E413G; M448V”, the ratio to parent in the assay with CoREST [2] amounted to 0.44; in the assay with CoREST [3] it was 0.11. For “FLAG-tagged wild-type Lsd1 (lysine-specific demethylase 1) (from UniProt Q6ZQ88) E413G”, the ratio to parent with CoREST [1] turned out to be 0.89.

With “FLAG-tagged wild-type Lsd1 (lysine-specific demethylase 1) (from UniProt Q6ZQ88) M448V”, in the assay with CoREST [1], the ratio to parent worked out at 0.35.

The record behind these values is paper PMC3634827.
